Measured values as given in patent US20240124857A1, “COMPOSITION FOR GUT HEALTH” (DUPONT NUTRITION BIOSCIENCES APS, priority 2021, published 2024).

B1: CRC22386: GDA1/CD39 family enzyme, accession WP_173236575.1, SEQ ID NO:12 (protein, listed as Legionella antarctica)
chain: GTVSCNEHQCIAVIDAGSTGSRIHVYAYDMDETNTPVHINEVWTKKIKPGFATIEPNYESIEAYLVTLLSGAPNQDIPVYFYATAGMRLLPASKQKLYYQELQRWFSQQHQWRLIDAKTITGNEEALYDWLSVNYHLDTLKSIQNKSVGVMDMGGASVQIVFPIQKNEEINSNSQVELDLYGHHVNLYVHSFLGLGQTEMSHQFLNSVSCFANDYPLPDGESGRGNAPSCKQEVSSLMNGVHGVNKTIQPVLTANPVDTWFAIGGLTNLADNKLFHFENGELTNQNLMQQADSQICHQQWDKLNSEFPNDDYVYEYCLLSAYYYALMVDGYGIYPEQTVNYVSSALNLDWTKGVVLHH
B2: CRC22387: GDA1/CD39 family enzyme, accession WP_127099836.1, SEQ ID NO:13 (protein, listed as Legionella sp.)
chain: QSSPCEKQQCIAIVDAGSTGSRLHIYAYDLDVTKTPIHIKELWNKKITPGFARIEANTNTIDSYLTILLADSPIKKIPIYFYATAGMRLLPQMKQKKYYDELSSWFKKHSEWQLVEAKTITGNEEGLYDWLSVNYHLGNFESPTNKSIGVMDMGGASVQIVFPIAETPTINDKSQIQVNLYGRHYNLYVHSFLGLGQTEMSHQFLNSASCFVNNYPLPDGAEGQGNALSCEQEVSSLMNQVHGVNQLIQPLLAANPVDSWYSIGGISNLADSQFFNFQHSQLTNQDLLEQADSQICHQQWEDINNQYPDDDYVYQYCLFSAYYYALMVDGYGLYPEQTINYLPPQQNIDWTTGVVLHQQR
B3: CRC25082: Acid phosphatase (Class A), accession WP_050460978.1, SEQ ID NO:19 (protein, listed as Herbaspirillum autotrophicum)
chain: KGAAGFLNGQTAPDSLAILPPPPAEDSVAFQADKAQYETGHVLRDPERVEQARQDADYRNFGHAFSAAFGMEISATHTPVLYQLLTEVLQDSHDYAMKAAKNHYKRVRPFVVYKDPTCTPGQDEKMALSGSYPSGHASFGWAAALVLAEINPARQTEILQRGYAFGKSRVICGAHWQSDVDNGQLMGAAVVAALHSNSQFAAALNAAKNEFAGLRAQDNKK
B4: CRC22112: GDA1/CD39 family enzyme, accession KTD66016.1, SEQ ID NO:10 (protein, listed as Legionella santicrucis)
chain: ESAECTEHQCMAVVDAGSTGSRAHIFAYDLDETNTPSQIHEIWSKKIKPGLATIEANQDTIDAYLTILFSGAPKQNIPVYFYATGGMRLIPQTKQKLYYKEIQNWFNQQSIWQLIEAKTITGNDEALYDWLAVNYHIGTLKSSTTEPIGVMDIGGASVQIAFPIPKDVETNKSSQVELDLYGKHLNLFVHSFLGLGQNEVTHQLLDTNSCFSEGYPLPGGNLGQGDAVICQQEVSSLINRVHKVQSEVQPTLATNRITMWYAIGGLTNLVESEPFQFQNNQITNQDLLQQANSLICHQQWEGLSTQFPDNEYIESFCLLPAFYYALMIDGYGISVTQPVKYISPRENLDWTTGVVLHH
B5: CRC22606: GDA1/CD39 family enzyme, accession OQW93475.1, SEQ ID NO:15 (protein, listed as Beggiatoa sp.)
chain: ETNGPAACHIVYDAGSSGTRLYIYEQQDKAWLEHEGPKVSALADPVREIRGKHWKDAESVTIEVVSALDSIKQDGPVKGDKPAWKAFDWTKHCQIKSAGVYATAGMRLAEQANKERSVTLWASLKQKLAAKLGPTVDIEARTLTGYEEGLYAWLAVREQQPDDSFAIAEMGGASAQITFPCAKCDENDPDTKTVQLSGKHLQIYSYSFLGLGQDEASHSLGFPTSCANGIGTQQSGWKAQDCANQIQLTGSKGIRDPYDFDGEQRGAHEQPPIAQADSNRWFLTGAFNYMNASNIETYCLKDPKLSEEESFCFRSIYPEKYLETLKIPVNSPKMNVSWTQGAVICKANSCLEAATKTPPLCRWLDKGCLP
B6: CRC22620: GDA1/CD39 family enzyme, accession NBS62745.1, SEQ ID NO:16 (protein, listed as Betaproteobacteria sp.)
chain: EDAARYLAVIDAGSSGSRLHLYERTAAERSVAVKQLFEAKAGEALSSFERSPGDAGPRGIQPLLEQLLDRLALLNIERSAVHVHVLATAGMRRLDADNPAAAQVIYQSVRHTLSSAGVTARRIETLSGHLEGVYAWVDVNDLSGALASTPAGATVAVIEVGGASAQLAYSGEALAGAPVTAVRLNGRSHQVVSLTWLGLGQDEARRAMLNAARSRSNADEEHCYPDNRKAAGGLSAFDADGSRHLVARGRFSFEQCSEMYDAVIRPFDLPPLATAIRQSRRPLVGLASVYFSLADWQVIGQPGTLASTLRGQCEGEDAYGDKVIGFIRRDPKNRFAQTACANGTFIHALLFGPAGLRVDPAQVSAVARINGQPPSWARGFALLGR
B7: CRC22605: GDA1/CD39 family enzyme, accession WP_133471262.1, SEQ ID NO:14 (protein, listed as Paraglaciecola sp.)
chain: QSKKPCYIVYDAGSSGTRLYIYEQLGANLISHEGPKVSALADPIRYTHGKDLSDLDTITNEVASALDLIKLDGPLEEGKPKWSGFDWSKQCEAQSVKVFATAGMRIAEQINPADSLVLWQTLASKINAKVGHNIKVEARTLTGFEEGLFAWLSVKDVYPSGHYGMVEMGGASSQITFPCPQCSLANDAVKTVTVDGKPIQIYSYSYLGLGQNEAPYSLPFGVAGQVPKSCSYGVGANNPDWTIASCAVEIPITAKGSNTDIIDPYNYTKTGTKGTTNTLPAAHKNIPKWLLMGAFNYAKETDIDDFCFNQHDGYYNAFTACFNPIYLDKYLKTLNIQAEQSSKVDVSWTQGAVICQIENCLATITPPPVCRWMKSGCLAY
B8: CRC22383: GDA1/CD39 family enzyme, accession WP_058475114.1, SEQ ID NO:11 (protein, listed as Legionella quateirensis)
chain: ADNPCTNHQCIAVIDAGSTGSRLHVFSYDVDETRSPININEIWNKKIKPGFATIEPNSNTIDAYLTTLLSGAPNQQIPVYFYATAGMRLLPVSKQKKYYDELQHWFSQQSQWQLVEAKTITGNDEALYDWLSVNYHLGTLQKSLNQSVGVMDMGGASVQIVFPIQKNSELNTRSQVELDLYGQHYTLYVQSFLGLGQTEVAHQFLNSAPCFSNDYPLPDGESGQGNASACEQEVSRLMTEVHKVNNVIQPLLAANPVDSWYSIGGISNLADSSLFHFENSKLTNQNLLQQADSQVCHQQWDSLNSQFPDDEYVYQYCLFSAYYYALMVDGYGIVPDQSINYIPPAQNLDWTMGVVLHH

assay: ATPase activity at 0.05 ppm enzyme on 0.1 mM ATP (absorbance 620 nm); type: biochemical; conditions: 50 mM IVIES buffer pH 5
Description: Enzyme activity towards ATP or ADP at pH 3 to 9: The ability of candidate enzymes to degrade ATP or ADP to AMP and free phosphate (Pi) was measured using a standard malachite green phosphate detection kit (Sigma Aldrich cat no. MAK307). The enzyme reactions were carried out in 96-well plates with a total volume of 150 μL and contained 250 μM of a substrate, 50 mM of a buffer, 5 mM CaCl2, and a variable concentration of enzyme. The substrate was ATP or ADP. The buffer was glycine (pH 3), acetate (pH 4, 4.5, 5), bis-Tris (pH 5.5, 6, 6.5), or Tris (pH 7, 8, 9). The concentration of enzyme varied from about 1 μg/mL to 1 ng/mL and was adjusted based on the activity of the enzyme so that the amount of phosphate released during the assay was with the dynamic range of the assay (5-100 μM phosphate). The enzyme concentration was determined by the absorbance at 280 nm and using the predicted molecular weight and molar extinction coefficient to calculate the concentration. The enzyme reaction was initiated by the addition of 15 μL enzyme with 135 μL of the other reaction components such that the final reaction composition was as previously described. The reaction was stopped after 5 min by mixing 80 μL of the reaction mixture with 20 μL of the malachite green working reagent. The malachite green working reagent was prepared according to the manufacturer's protocol by mixing 100 parts reagent A with 1 part reagent B. Phosphate standard solutions (0-80 μM) and a negative control reaction without enzyme were also mixed with the malachite green working reagent. All samples were tested in duplicate. The malachite green reaction mixture was allowed to rest at room temperature for 45-60 min and the absorbance at 620 nm was measured. Lastly, the absorbance of the phosphate standards were used to convert the absorbance readings of each sample into phosphate concentrations and the negative control was subtracted from each reaction.
Enzymes of interest were assayed against ATP substrate. The ATPase activity was measured at 0.05 ppm concentration in 50 mM IVIES buffer pH 6 and pH 5 with 0.1 mM ATP as substrate as described in Example 1. Commercial potato apyrase was used as reference. The absorbance at 620 nm was measured and the absorbance of a blank sample (water) was subtracted from each sample.

Activity on ATP (absorbance at 620 nm, blank subtracted), pH 5.0	Molecule
0.36	B1
0.36	B2
0.93	B3
0.04	B4
0.43	B5
0.13	B6
0.50	B7
0.07	B8

same assay, conditions: 50 mM IVIES buffer pH 6

Activity on ATP (absorbance at 620 nm, blank subtracted), pH 6.0	Molecule
0.25	B1
0.11	B2
0.65	B3
0.06	B4
0.21	B5
0.22	B6
0.28	B7
0.10	B8

assay: pH profile of enzymes on 1 mM ATP; type: biochemical; conditions: 50 mM trisodium citrate/citric acid, 5 mM CaCl2, relative to the highest value
Description: The pH profile of additional enzymes of interest was assayed using 1 mM ATP, in 50 mM trisodium citrate/citric acid buffer with 5 mM CaCl2. Absorbance was read at 620 nm and all values were set relative to the highest one. Commercial potato apyrase was used as reference. […]

Molecule	Relative activity on ATP, pH 3	Relative activity on ATP, pH 3.5	Relative activity on ATP, pH 4	Relative activity on ATP, pH 4.5	Relative activity on ATP, pH 5	Relative activity on ATP, pH 5.5	Relative activity on ATP, pH 6	Relative activity on ATP, pH 6.5
B1	0.0	0.0	0.0	0.0	0.2	0.6	0.8	1.0
B2	0.1	0.0	0.0	0.1	0.3	0.5	1.0	1.0
B3	0.0	0.0	0.0	0.1	0.3	0.7	1.0	0.8
B5	0.0	0.0	0.0	0.3	0.6	0.8	0.9	1.0
B6	0.0	0.0	0.0	0.1	0.4	0.7	1.0	0.8
B7	0.0	0.0	0.0	0.0	0.4	0.8	1.0	1.0
